Experimental data published in patent US20220411483A1 (Chugai, published 2022).

T1: human FcγRIIa R type extracellular domain with C-terminal His tag (human, UniProt P12318 34-217)
T1 construct: extracellular domain; also called FcgRIIaR
T1 sequence (looked up): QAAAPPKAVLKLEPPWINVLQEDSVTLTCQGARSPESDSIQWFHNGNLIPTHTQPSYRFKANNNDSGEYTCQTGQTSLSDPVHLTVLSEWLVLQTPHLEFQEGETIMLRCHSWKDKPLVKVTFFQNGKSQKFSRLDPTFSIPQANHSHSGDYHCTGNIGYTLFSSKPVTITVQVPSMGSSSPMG

T2: human FcγRIIb extracellular domain with C-terminal His tag (human, UniProt P31994 43-217)
T2 construct: extracellular domain; also called FcgRIIb
T2 sequence (looked up): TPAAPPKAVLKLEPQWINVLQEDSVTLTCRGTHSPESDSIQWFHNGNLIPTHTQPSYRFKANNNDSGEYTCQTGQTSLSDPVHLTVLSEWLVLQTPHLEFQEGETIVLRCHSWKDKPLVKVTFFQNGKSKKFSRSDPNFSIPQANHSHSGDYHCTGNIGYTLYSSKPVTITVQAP

T3: human FcγRIIa H type extracellular domain with C-terminal His tag (human, UniProt P12318 34-217)
T3 construct: extracellular domain; also called FcgRIIaH
T3 sequence (looked up): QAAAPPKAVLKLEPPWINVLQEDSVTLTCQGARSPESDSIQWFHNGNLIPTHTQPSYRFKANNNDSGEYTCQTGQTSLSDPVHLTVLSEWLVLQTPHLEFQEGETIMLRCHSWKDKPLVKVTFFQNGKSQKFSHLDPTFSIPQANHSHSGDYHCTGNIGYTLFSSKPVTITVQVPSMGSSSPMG


Legend:
[1] = target: T4, human FcγRIa extracellular domain with C-terminal His tag (human, UniProt P12314 16-292); assay: SPR, antibody captured, FcgR analyte
T4 construct: Whole entry named; also called FcgRIa
T4 sequence (P12314 16-292): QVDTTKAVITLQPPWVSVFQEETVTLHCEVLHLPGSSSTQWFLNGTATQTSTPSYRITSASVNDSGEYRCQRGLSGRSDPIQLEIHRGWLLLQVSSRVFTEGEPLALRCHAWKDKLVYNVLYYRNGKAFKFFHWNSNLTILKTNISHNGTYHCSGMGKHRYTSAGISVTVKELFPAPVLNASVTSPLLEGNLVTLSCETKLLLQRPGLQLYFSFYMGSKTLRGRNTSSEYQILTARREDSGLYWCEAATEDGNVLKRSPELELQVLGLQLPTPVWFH

[2] = target: T1, human FcγRIIa R type extracellular …; assay: SPR, antibody captured, FcgR analyte
[3] = target: T2, human FcγRIIb extracellular domain with …; assay: SPR, antibody captured, FcgR analyte
[4] = target: T4, human FcγRIa extracellular domain with …; assay: SPR, KD of IL6R-G1d/IL6R-L divided by KD of variant
[5] = target: T1, human FcγRIIa R type extracellular …; assay: as above
[6] = target: T3, human FcγRIIa H type extracellular …; assay: as above
[7] = target: T2, human FcγRIIb extracellular domain with …; assay: as above
[8] = target: T5, human FcγRIIIa V type extracellular domain with C-terminal His tag (human, UniProt P08637 17-208); assay: as above
T5 construct: extracellular domain; also called FcgRIIIaV
T5 sequence (P08637 17-208 F176V): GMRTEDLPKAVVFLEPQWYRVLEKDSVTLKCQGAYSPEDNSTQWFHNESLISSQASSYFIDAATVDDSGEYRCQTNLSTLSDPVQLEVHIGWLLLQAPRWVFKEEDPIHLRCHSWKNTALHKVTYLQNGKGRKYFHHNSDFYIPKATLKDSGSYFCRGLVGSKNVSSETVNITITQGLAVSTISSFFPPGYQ

Binder | Kd [1] [nM] | Kd [2] [nM] | Kd [3] [nM] | Relative FcgRIa-binding Activity [4] | Relative FcgRIIaR-binding Activity [5] | Relative FcgRIIaH-binding Activity [6] | Relative FcgRIIb-binding Activity [7] | Relative FcgRIIIaV-binding Activity [8]
IL6R-P756/IL6R-L (antibody, human IgG1, kappa) heavy: QVQLQESGPGLVKPSETLSLTCAVSGHSISHDHAWSWVRQPPGEGLEWIGFISYSGITNYNPSLQGRVTISRDNSKNTLYLQMNSLRAEDTAVYYCARSLARTTAMDYWGEGTLVTVSSASTKGPSVFPLAPSSKSTSGGTAALGCLVKDYFPEPVTVSWNSGALTSGVHTFPAVLQSSGLYSLSSVVTVPSSSLGTQTYICNVNHKPSNTKVDKKVEPKSCDKTHTCPPCPAPDLLGGDSVFLFPPKPKDTLMISRTPEVTCVVIDVAEEDGEVKFNWYVDGVEVHNAKTKPREEQYNSTYRVVSVLTVLHQDWLNGKEYKCKVSNKGLPSSIEKTISKAKGQPREPQVYTLPPSRDELTKNQVSLTCLVKGFYPSDIAVEWESNGQPENNYKTTPPVLDSDGSFFLYSKLTVDKSRWQQGNVFSCSVMHEALHNHYTQKSLSLSP light: not shown | 1.1 | 1700 | 52 | 0.291 | 0.65 | 0.03 | 40.4 | 0.007
IL6R-P757/IL6R-L (antibody, human IgG1, kappa) heavy: QVQLQESGPGLVKPSETLSLTCAVSGHSISHDHAWSWVRQPPGEGLEWIGFISYSGITNYNPSLQGRVTISRDNSKNTLYLQMNSLRAEDTAVYYCARSLARTTAMDYWGEGTLVTVSSASTKGPSVFPLAPSSKSTSGGTAALGCLVKDYFPEPVTVSWNSGALTSGVHTFPAVLQSSGLYSLSSVVTVPSSSLGTQTYICNVNHKPSNTKVDKKVEPKSCDKTHTCPPCPAPELLGGDSVFLFPPKPKDTLMISRTPEVTCVVIDVAEEDGEVKFNWYVDGVEVHNAKTKPREEQYNSTYRVVSVLTVLHQDWLNGKEYKCKVSNKGLPSSIEKTISKAKGQPREPQVYTLPPSRDELTKNQVSLTCLVKGFYPSDIAVEWESNGQPENNYKTTPPVLDSDGSFFLYSKLTVDKSRWQQGNVFSCSVMHEALHNHYTQKSLSLSP light: not shown | 1.7 | 2300 | 100 | 0.188 | 0.48 | 0.026 | 21 | 0.008
IL6R-P758/IL6R-L (antibody, human IgG1, kappa) heavy: QVQLQESGPGLVKPSETLSLTCAVSGHSISHDHAWSWVRQPPGEGLEWIGFISYSGITNYNPSLQGRVTISRDNSKNTLYLQMNSLRAEDTAVYYCARSLARTTAMDYWGEGTLVTVSSASTKGPSVFPLAPSSKSTSGGTAALGCLVKDYFPEPVTVSWNSGALTSGVHTFPAVLQSSGLYSLSSVVTVPSSSLGTQTYICNVNHKPSNTKVDKKVEPKSCDKTHTCPPCPAPELLGDDSVFLFPPKPKDTLMISRTPEVTCVVVDVSDEDGEVKFNWYVDGVEVHNAKTKPREEQYNSTYRVVSVLTVLHQDWLNGKEYKCKVSNKGLPSSIEKTISKAKGQPREPQVYTLPPSRDELTKNQVSLTCLVKGFYPSDIAVEWESNGQPENNYKTTPPVLDSDGSFFLYSKLTVDKSRWQQGNVFSCSVMHEALHNHYTQKSLSLSP light: not shown | 11 | 1900 | 260 | 0.029 | 0.58 | 0.021 | 8.1 | 0.006
IL6R-P759/IL6R-L (antibody, human IgG1, kappa) heavy: QVQLQESGPGLVKPSETLSLTCAVSGHSISHDHAWSWVRQPPGEGLEWIGFISYSGITNYNPSLQGRVTISRDNSKNTLYLQMNSLRAEDTAVYYCARSLARTTAMDYWGEGTLVTVSSASTKGPSVFPLAPSSKSTSGGTAALGCLVKDYFPEPVTVSWNSGALTSGVHTFPAVLQSSGLYSLSSVVTVPSSSLGTQTYICNVNHKPSNTKVDKKVEPKSCDKTHTCPPCPAPDLLGDDSVFLFPPKPKDTLMISRTPEVTCVVVDVSDEDGEVKFNWYVDGVEVHNAKTKPREEQYNSTYRVVSVLTVLHQDWLNGKEYKCKVSNKGLPSSIEKTISKAKGQPREPQVYTLPPSRDELTKNQVSLTCLVKGFYPSDIAVEWESNGQPENNYKTTPPVLDSDGSFFLYSKLTVDKSRWQQGNVFSCSVMHEALHNHYTQKSLSLSP light: not shown | 5.5 | 1400 | 150 | 0.058 | 0.79 | 0.024 | 14 | 0.005
IL6R-P760/IL6R-L (antibody, human IgG1, kappa) heavy: QVQLQESGPGLVKPSETLSLTCAVSGHSISHDHAWSWVRQPPGEGLEWIGFISYSGITNYNPSLQGRVTISRDNSKNTLYLQMNSLRAEDTAVYYCARSLARTTAMDYWGEGTLVTVSSASTKGPSVFPLAPSSKSTSGGTAALGCLVKDYFPEPVTVSWNSGALTSGVHTFPAVLQSSGLYSLSSVVTVPSSSLGTQTYICNVNHKPSNTKVDKKVEPKSCDKTHTCPPCPAPELLGDDSVFLFPPKPKDTLMISRTPEVTCVVVDVSEEDGEVKFNWYVDGVEVHNAKTKPREEQYNSTYRVVSVLTVLHQDWLNGKEYKCKVSNKGLPSSIEKTISKAKGQPREPQVYTLPPSRDELTKNQVSLTCLVKGFYPSDIAVEWESNGQPENNYKTTPPVLDSDGSFFLYSKLTVDKSRWQQGNVFSCSVMHEALHNHYTQKSLSLSP light: not shown | 15 | 1600 | 190 | 0.021 | 0.69 | 0.027 | 11.1 | 0.008
IL6R-P761/IL6R-L (antibody, human IgG1, kappa) heavy: QVQLQESGPGLVKPSETLSLTCAVSGHSISHDHAWSWVRQPPGEGLEWIGFISYSGITNYNPSLQGRVTISRDNSKNTLYLQMNSLRAEDTAVYYCARSLARTTAMDYWGEGTLVTVSSASTKGPSVFPLAPSSKSTSGGTAALGCLVKDYFPEPVTVSWNSGALTSGVHTFPAVLQSSGLYSLSSVVTVPSSSLGTQTYICNVNHKPSNTKVDKKVEPKSCDKTHTCPPCPAPDLLGDDSVFLFPPKPKDTLMISRTPEVTCVVVDVSEEDGEVKFNWYVDGVEVHNAKTKPREEQYNSTYRVVSVLTVLHQDWLNGKEYKCKVSNKGLPSSIEKTISKAKGQPREPQVYTLPPSRDELTKNQVSLTCLVKGFYPSDIAVEWESNGQPENNYKTTPPVLDSDGSFFLYSKLTVDKSRWQQGNVFSCSVMHEALHNHYTQKSLSLSP light: not shown | 8 | 1100 | 120 | 0.04 | 1 | 0.036 | 17.5 | 0.008
IL6R-P762/IL6R-L (antibody, human IgG1, kappa) heavy: QVQLQESGPGLVKPSETLSLTCAVSGHSISHDHAWSWVRQPPGEGLEWIGFISYSGITNYNPSLQGRVTISRDNSKNTLYLQMNSLRAEDTAVYYCARSLARTTAMDYWGEGTLVTVSSASTKGPSVFPLAPSSKSTSGGTAALGCLVKDYFPEPVTVSWNSGALTSGVHTFPAVLQSSGLYSLSSVVTVPSSSLGTQTYICNVNHKPSNTKVDKKVEPKSCDKTHTCPPCPAPELLGGDSVFLFPPKPKDTLMISRTPEVTCVVVDVSHEDGEVKFNWYVDGVEVHNAKTKPREEQYNSTYRVVSVLTVLHQDWLNGKEYKCKVSNKGLPSSIEKTISKAKGQPREPQVYTLPPSRDELTKNQVSLTCLVKGFYPSDIAVEWESNGQPENNYKTTPPVLDSDGSFFLYSKLTVDKSRWQQGNVFSCSVMHEALHNHYTQKSLSLSP light: not shown | 6.1 | 3400 | 550 | 0.052 | 0.32 | 0.021 | 3.8 | 0.007
IL6R-P763/IL6R-L (antibody, human IgG1, kappa) heavy: QVQLQESGPGLVKPSETLSLTCAVSGHSISHDHAWSWVRQPPGEGLEWIGFISYSGITNYNPSLQGRVTISRDNSKNTLYLQMNSLRAEDTAVYYCARSLARTTAMDYWGEGTLVTVSSASTKGPSVFPLAPSSKSTSGGTAALGCLVKDYFPEPVTVSWNSGALTSGVHTFPAVLQSSGLYSLSSVVTVPSSSLGTQTYICNVNHKPSNTKVDKKVEPKSCDKTHTCPPCPAPELLGGDSVFLFPPKPKDTLMISRTPEVTCVVVDVAEEDGEVKFNWYVDGVEVHNAKTKPREEQYNSTYRVVSVLTVLHQDWLNGKEYKCKVSNKALPAPIEKTISKAKGQPREPQVYTLPPSRDELTKNQVSLTCLVKGFYPSDIAVEWESNGQPENNYKTTPPVLDSDGSFFLYSKLTVDKSRWQQGNVFSCSVMHEALHNHYTQKSLSLSP light: not shown | 0.73 | 1600 | 100 | 0.438 | 0.69 | 0.034 | 21 | 0.014
